Assay results as given in publication PMC11648230, “Structure–function analysis of tRNA t^6A-catalysis, assembly, and thermostability of Aquifex aeolicus TsaD2B2 tetramer in complex with TsaE” (The Journal of Biological Chemistry, 2024).

Assays:
[1] = target: Aquifex aeolicus TsaD^Δ34–382B2 tetramer (Aquifex aeolicus) (UniProt O66986)
[2] = target: Aquifex aeolicus TsaD2B2 tetramer (Aquifex aeolicus) (UniProt O66986)
[3] = target: Aquifex aeolicus TsaD2B^mut2 tetramer (Aquifex aeolicus | Thermotoga maritima) (UniProt O66986)
[4] = substrate: Nc1ncnc2c1ncn2[C@@H]1O[C@H](COP(=O)(O)OP(=O)(O)OP(=O)(O)O)[C@@H](O)[C@H]1O; experiment: NADH-coupled ATPase assay; type: biochemical, Aquifex aeolicus; details: 10 uM TsaE with 5 uM TsaD2B2, no tRNA, 10 mM MgCl2, 100 mM KCl, pH 7.5, 37 °C
Text: NADH-coupled ATPase assay on A. aeolicus TsaD2B2E2

[5] = substrate: Nc1ncnc2c1ncn2[C@@H]1O[C@H](COP(=O)(O)OP(=O)(O)OP(=O)(O)O)[C@@H](O)[C@H]1O; experiment: NADH-coupled ATPase assay; type: biochemical, Aquifex aeolicus; details: 10 uM TsaE alone, 10 mM MgCl2, 100 mM KCl, pH 7.5, 37 °C
Text: NADH-coupled ATPase assay on A. aeolicus TsaE (AaTsaE)

Sequence of Aquifex aeolicus TsaD2B2 tetramer (Aquifex aeolicus) (O66986 whole entry, chain 1 of 2): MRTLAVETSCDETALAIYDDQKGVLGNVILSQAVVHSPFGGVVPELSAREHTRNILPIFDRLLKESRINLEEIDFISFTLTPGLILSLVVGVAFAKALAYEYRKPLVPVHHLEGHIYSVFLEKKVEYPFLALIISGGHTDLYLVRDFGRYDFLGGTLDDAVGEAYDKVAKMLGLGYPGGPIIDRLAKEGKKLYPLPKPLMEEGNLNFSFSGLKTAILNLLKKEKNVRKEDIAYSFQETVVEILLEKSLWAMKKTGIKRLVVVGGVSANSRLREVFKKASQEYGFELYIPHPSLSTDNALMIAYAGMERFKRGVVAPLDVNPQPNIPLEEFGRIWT
Sequence of Aquifex aeolicus TsaD2B2 tetramer (Aquifex aeolicus) (partner O66494, as listed by the source, chain 2 of 2): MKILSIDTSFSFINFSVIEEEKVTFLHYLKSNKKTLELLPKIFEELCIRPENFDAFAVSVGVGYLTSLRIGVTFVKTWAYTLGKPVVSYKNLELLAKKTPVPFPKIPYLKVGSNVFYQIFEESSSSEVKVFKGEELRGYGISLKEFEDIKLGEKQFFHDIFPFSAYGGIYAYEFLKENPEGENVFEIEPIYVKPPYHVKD
Sequence of Aquifex aeolicus TsaD2B^mut2 tetramer (Aquifex aeolicus | Thermotoga maritima) (O66986 whole entry, looked up): as the sequence (O66986 whole entry, chain 1 of 2) above
Sequence of Aquifex aeolicus TsaD^Δ34–382B2 tetramer (Aquifex aeolicus) (O66986 other isoform, or with tags, fused parts or gaps mutant, chain 1 of 2): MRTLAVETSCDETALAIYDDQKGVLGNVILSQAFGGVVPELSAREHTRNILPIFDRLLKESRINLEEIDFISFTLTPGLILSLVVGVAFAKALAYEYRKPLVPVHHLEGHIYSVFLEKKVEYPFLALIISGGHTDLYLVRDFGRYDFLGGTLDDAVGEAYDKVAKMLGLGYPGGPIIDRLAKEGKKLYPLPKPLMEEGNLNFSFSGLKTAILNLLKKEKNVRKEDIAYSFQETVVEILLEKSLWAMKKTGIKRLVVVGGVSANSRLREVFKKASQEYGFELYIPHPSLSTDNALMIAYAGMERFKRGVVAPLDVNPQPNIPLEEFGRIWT
Sequence of Aquifex aeolicus TsaD^Δ34–382B2 tetramer (Aquifex aeolicus) (partner O66494, as listed by the source mutant, chain 2 of 2): as the sequence (partner O66494, as listed by the source, chain 2 of 2) above

B1: Aquifex aeolicus TsaE (enzyme)
chain: MELLKEVILESEEDTYKLAEEIAQLLKGSEVICLRGTLGAGKTTFVKALAKALKVKNPSAVRSPTFTLVNEYETDKGKLIHIDLYRVPDFDYSEFIGEGILAVEWEERDKPCDIILEIEILDENKRKVRIYRK
B1 gave a Vmax of ATP to ADP hydrolysis by 10 μM TsaE with 5 μM TsaD^Δ34–382B2 (NADH-coupled assay, 37 °C) [1] of 0.219 µM/s, a kcat of ATP to ADP hydrolysis by 10 μM TsaE with 5 μM TsaD^Δ34–382B2 (NADH-coupled assay, 37 °C) [1] of 0.044 s⁻¹ and a Vmax of ATP to ADP hydrolysis by 10 μM TsaE with 5 μM TsaD2B2 (NADH-coupled assay, 37 °C); TsaE alone 0.0374 [2] of 0.0982 µM/s. The kcat of ATP to ADP hydrolysis by 10 μM TsaE with 5 μM TsaD2B2 (NADH-coupled assay, 37 °C); TsaE alone 0.007 [2] was 0.02 s⁻¹, the Vmax of ATP to ADP hydrolysis by 10 μM TsaE with 5 μM TsaD2B^mut2 (NADH-coupled assay, 37 °C) [3] was 0.125 µM/s and the kcat of ATP to ADP hydrolysis by 10 μM TsaE with 5 μM TsaD2B^mut2 (NADH-coupled assay, 37 °C) [3] was 0.025 s⁻¹.

B2: A. aeolicus TsaD2B2E2 (Aquifex aeolicus VF5) (protein)
chain: B1 chain
notes: recombinant from E. coli; with tRNA N6-adenosine threonylcarbamoyltransferase; tRNA threonylcarbamoyladenosine biosynthesis protein TsaB
With B2 the Km [4] was 228 ± 47.9 µM, the Vmax [4] was 5.89 µM/min and the kcat [4] was 0.02 ± 0.0012 s⁻¹. For the same binder, the kcat/Km [4] was 86 M⁻¹ s⁻¹.

B3: A. aeolicus TsaE (AaTsaE) (Aquifex aeolicus VF5) (protein)
chain: B1 chain
notes: recombinant from E. coli (plasmid pET24d-BC11_Eop); monomer
For B3, the Km [5] was 96 ± 44.9 µM, the Vmax [5] was 2.24 µM/min and the kcat [5] was 0.007 ± 0.0007 s⁻¹. It also gave a kcat/Km [5] of 78 M⁻¹ s⁻¹.
